Consider 84 variants from the RNAGym collection of RNA variant scans (doi:10.1073/pnas.2313332121).

First the molecules themselves.
B1: TPR 5TU (parent)
chain: GGAUCUUCUCGAUCUAACAAAAAAGACAAAUCUGCCACAAAGCUUGAGAGCAUCUUCGGAUGCAGAGGCGGCAGCCUUCGGUGGCGCGAUAGCGCCAACGUUCUCAACUAUGACACGCAAAACGCGUGCUCCGUUGAAUGGAGUUUAUCAUG

Fewer inactive variants are shown than the library holds.

In this data set the parent is B1. In words: polymerase ribozyme fitness, log enrichment relative to wild type (log ratio); higher = more active; in vitro selection for triplet polymerase activity. The procedure, abridged:
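Genotype fitness is the logarithm of its enrichment divided by wild-type enrichment, using inverse-variance-weighted averages of replicates. That logarithm is base 2. Enrichment was measured by Illumina sequencing of input and output libraries from one triplicate in vitro selection round, with frozen incubation at −7 °C, on PCR-built, transcribed mutant libraries of each subunit of a heterodimeric triplet polymerase ribozyme, retaining genotypes with ≥10 input reads and ≥1 read per output.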
As to C36G G62C G84U, the “polymerase ribozyme fitness (log ratio)” value is no more than -4.2.

For C36U G92C C116U C118U U144C, the “polymerase ribozyme fitness (log ratio)” value was no more than -4.2.

C36U C85U G133A U135C: the “polymerase ribozyme fitness (log ratio)” value was -4.18.

Regarding C36U C54G A66C G84U C95A U101G, the “polymerase ribozyme fitness (log ratio)” value is no more than -4.2.

Take C35U G46A A119G A121U: the “polymerase ribozyme fitness (log ratio)” value was -1.45.

Consider C35U A47G C99G G152A, for which the “polymerase ribozyme fitness (log ratio)” value was -3.48.

Take C35U C76U C99U: the “polymerase ribozyme fitness (log ratio)” value was -1.5.

As to C36A A60C G71C C79A G84A A91G C93G, the “polymerase ribozyme fitness (log ratio)” value is no more than -4.2.

Consider C35U A73U G88U C108G, for which the “polymerase ribozyme fitness (log ratio)” value was no more than -4.2.

As for C36A A66C G81A A91C C93U, the “polymerase ribozyme fitness (log ratio)” value was no more than -4.2.

In the case of C35U U55A C96U, the “polymerase ribozyme fitness (log ratio)” value is -0.218.

Regarding C35A G67U G94U, the “polymerase ribozyme fitness (log ratio)” value is no more than -4.2.

With A37C A49G C93U, the “polymerase ribozyme fitness (log ratio)” value is -2.86.

As for C36A G84U C114A A120U G143U, the “polymerase ribozyme fitness (log ratio)” value was -4.19.

With C36U C99U U145A, the “polymerase ribozyme fitness (log ratio)” value is -1.47.

As to C35U G81U U82G G88U G94U U139C C149A, the “polymerase ribozyme fitness (log ratio)” value was no more than -4.2.

On to C35U A52C U55A C93U C149A, for which the “polymerase ribozyme fitness (log ratio)” value is no more than -4.2.

With C35U A52C C123U, the “polymerase ribozyme fitness (log ratio)” value is -1.31.

Consider C35U U56A C57A A97U C123U U130C, for which the “polymerase ribozyme fitness (log ratio)” value was -0.0554.

As to C35U G59A G83U A98C G128C, the “polymerase ribozyme fitness (log ratio)” value is -3.94.

With C35U G58C G71A C93G, the “polymerase ribozyme fitness (log ratio)” value is -3.09.

As for C36A C57U A66C C99A, the “polymerase ribozyme fitness (log ratio)” value was no more than -4.2.

C36U G59C C95A: the “polymerase ribozyme fitness (log ratio)” value was -1.64.

On to C36U A66G G112A A142U, for which the “polymerase ribozyme fitness (log ratio)” value was no more than -4.2.

Regarding C36A U55A A64U C96A C118G, the “polymerase ribozyme fitness (log ratio)” value was no more than -4.2.

As to C35U C95G, the “polymerase ribozyme fitness (log ratio)” value is -1.22.

Turning to A37C A97G U151A, the “polymerase ribozyme fitness (log ratio)” value was no more than -4.2.

In the case of C36A G50C U53A U56A C93U A115U, the “polymerase ribozyme fitness (log ratio)” value was no more than -4.2.

As to C35U G46C C72U G74U C96U A107G, the “polymerase ribozyme fitness (log ratio)” value is no more than -4.2.

Turning to A37C C38G C85U, the “polymerase ribozyme fitness (log ratio)” value is -1.28.

For C36A U45A U61A C87U A97C G126A, the “polymerase ribozyme fitness (log ratio)” value was no more than -4.2.

Consider C36A U56A C57A A122G U127C, for which the “polymerase ribozyme fitness (log ratio)” value was no more than -4.2.

In the case of C35G C51G U56G G70A C76G C85G G133U, the “polymerase ribozyme fitness (log ratio)” value was no more than -4.2.

With C36U G62A C72U, the “polymerase ribozyme fitness (log ratio)” value is -3.23.

With A37C A49C A91G G94A C96U A106G, the “polymerase ribozyme fitness (log ratio)” value is no more than -4.2.

In the case of C36A A121U, the “polymerase ribozyme fitness (log ratio)” value is -3.23.

On to C35G G141C, for which the “polymerase ribozyme fitness (log ratio)” value is -3.66.

On to C36A A47C G59U, for which the “polymerase ribozyme fitness (log ratio)” value is no more than -4.2.

In the case of C35U C43A G58U C75G C87G A121U C123U G133A, the “polymerase ribozyme fitness (log ratio)” value was no more than -4.2.

Regarding C36U G50C C85A A110C, the “polymerase ribozyme fitness (log ratio)” value was no more than -4.2.

As to C35U C69U A91G C118A, the “polymerase ribozyme fitness (log ratio)” value was -3.8.

On to A37C A41C U53G G59A G84A C103A U145A, for which the “polymerase ribozyme fitness (log ratio)” value is no more than -4.2.

C36G C99G C132U U146C: the “polymerase ribozyme fitness (log ratio)” value is -4.06.

On to C36U G59A U82G A97U, for which the “polymerase ribozyme fitness (log ratio)” value is -1.3.

For C35G G84A U104G U109G G140U, the “polymerase ribozyme fitness (log ratio)” value is no more than -4.2.

Take C35G C69A C76A C118G U127C: the “polymerase ribozyme fitness (log ratio)” value is no more than -4.2.

Consider C35U A47C G80U C87U, for which the “polymerase ribozyme fitness (log ratio)” value was -3.9.

As for C35U G92A C96A, the “polymerase ribozyme fitness (log ratio)” value is no more than -4.2.

As to C35U G71U, the “polymerase ribozyme fitness (log ratio)” value was -3.53.

On to C35G U78G C99A, for which the “polymerase ribozyme fitness (log ratio)” value was no more than -4.2.

For C36U G94A C125A, the “polymerase ribozyme fitness (log ratio)” value is -1.63.

As for A37C A64C G71A C85A G126C, the “polymerase ribozyme fitness (log ratio)” value was no more than -4.2.

As to C36A U78C G80U C149U, the “polymerase ribozyme fitness (log ratio)” value is no more than -4.2.

Take C36U G71A G94A: the “polymerase ribozyme fitness (log ratio)” value is no more than -4.2.

Turning to C35U C118U, the “polymerase ribozyme fitness (log ratio)” value was -0.573.

On to C36U G50U C54U C99U, for which the “polymerase ribozyme fitness (log ratio)” value is -4.14.

C35G U55G C85G U144A: the “polymerase ribozyme fitness (log ratio)” value was no more than -4.2.

For C35U C51U G67A G92A C131G G133A U145G, the “polymerase ribozyme fitness (log ratio)” value was no more than -4.2.

C35U C75G U127C: the “polymerase ribozyme fitness (log ratio)” value was no more than -4.2.

Regarding C36A U45A C87G A91G, the “polymerase ribozyme fitness (log ratio)” value was no more than -4.2.

Take C35U C93A A120C G126A A150U: the “polymerase ribozyme fitness (log ratio)” value was -4.

C35G U55G G81A A98G U102A: the “polymerase ribozyme fitness (log ratio)” value was no more than -4.2.

Consider C36U C54A C95G C108U U109C C116U, for which the “polymerase ribozyme fitness (log ratio)” value is no more than -4.2.

For the variant C36A A98U A113U C118U U148A, the “polymerase ribozyme fitness (log ratio)” value was no more than -4.2.

C35U G117U: the “polymerase ribozyme fitness (log ratio)” value stood at 0.973.

As to C36U C79A C87U A115C A122C C131G, the “polymerase ribozyme fitness (log ratio)” value was no more than -4.2.

As for A37C A49C G59C G83C C95A A122U G143U A150G, the “polymerase ribozyme fitness (log ratio)” value was no more than -4.2.

For the variant C36U C54A G65C G67U G68U C95G A110C A113U C116U G143C C149A, the “polymerase ribozyme fitness (log ratio)” value was no more than -4.2.

C35A U56C U82A: the “polymerase ribozyme fitness (log ratio)” value was -3.49.

Regarding C36U C72U, the “polymerase ribozyme fitness (log ratio)” value was -0.573.

As for C35U C51U C85A, the “polymerase ribozyme fitness (log ratio)” value is -3.1.

Turning to C36G C95U, the “polymerase ribozyme fitness (log ratio)” value was -3.45.

Turning to C35U A47C U56G A64U A106U G133U, the “polymerase ribozyme fitness (log ratio)” value was no more than -4.2.

As to C35A G126A, the “polymerase ribozyme fitness (log ratio)” value is -3.51.

Turning to C36A U56G C85U C93U G94C, the “polymerase ribozyme fitness (log ratio)” value was no more than -4.2.

On to A37C A49C C54A U78G C93U G124A, for which the “polymerase ribozyme fitness (log ratio)” value was no more than -4.2.

For the variant C36A C87G A107C, the “polymerase ribozyme fitness (log ratio)” value is no more than -4.2.

On to C35U G58A A60C C93G C96U C105U C116U, for which the “polymerase ribozyme fitness (log ratio)” value is no more than -4.2.

As for C35U C149U, the “polymerase ribozyme fitness (log ratio)” value was -1.57.

As for C35G G86A A120C C125U G143C, the “polymerase ribozyme fitness (log ratio)” value was no more than -4.2.

C36U U145A G152A: the “polymerase ribozyme fitness (log ratio)” value is -3.

As to C36A C96A G133A, the “polymerase ribozyme fitness (log ratio)” value is no more than -4.2.

In the case of C36G U145A, the “polymerase ribozyme fitness (log ratio)” value was -3.88.

Consider C36U A52G G70U G84A, for which the “polymerase ribozyme fitness (log ratio)” value is -2.84.
